B1: Merlin (Homo sapiens), P35240-3 (parent)
chain: MAGAIASRMSFSSLKRKQPKTFTVRIVTMDAEMEFNCEMKWKGKDLFDLVCRTLGLRETWFFGLQYTIKDTVAWLKMDKKVLDHDVSKEEPVTFHFLAKFYPENAEEELVQEITQHLFFLQVKKQILDEKIYCPPEASVLLASYAVQAKYGDYDPSVHKRGFLAQEELLPKRVINLYQMTPEMWEERITAWYAEHRGRARDEAEMEYLKIAQDLEMYGVNYFAIRNKKGTELLLGVDALGLHIYDPENRLTPKISFPWNEIRNISYSDKEFTIKPLDKKIDVFKFNSSKLRVNKLILQLCIGNHDLFMRRRKADSLEVQQMKAQAREEKARKQMERQRLAREKQMREEAERTRDELERRLLQMKEEATMANEALMRSEETADLLAEKAQITEEEAKLLAQKAAEAEQEMQRIKATAIRTEEEKRLMEQKVLEAEVLALKMAEESERRAKEADQLKQDLQEAREAERRAKQKLLEIATKPTYPPMNPIPAPLPPDIPSFNLIGDSLSFDFKDTDMKRLSMEIEKEKVEYMEKSKHLQEQLNELKTEIEALKLKERETALDILHNENSDRGGSSKHNTIKKPQAQGRRPICI
partner: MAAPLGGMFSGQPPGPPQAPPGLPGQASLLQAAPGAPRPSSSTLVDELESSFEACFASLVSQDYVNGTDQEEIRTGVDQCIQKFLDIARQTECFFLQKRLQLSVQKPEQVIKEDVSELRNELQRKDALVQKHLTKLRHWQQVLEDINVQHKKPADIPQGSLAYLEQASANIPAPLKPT
B2: Merlin (Homo sapiens), P35240-1 (parent)
chain: MAGAIASRMSFSSLKRKQPKTFTVRIVTMDAEMEFNCEMKWKGKDLFDLVCRTLGLRETWFFGLQYTIKDTVAWLKMDKKVLDHDVSKEEPVTFHFLAKFYPENAEEELVQEITQHLFFLQVKKQILDEKIYCPPEASVLLASYAVQAKYGDYDPSVHKRGFLAQEELLPKRVINLYQMTPEMWEERITAWYAEHRGRARDEAEMEYLKIAQDLEMYGVNYFAIRNKKGTELLLGVDALGLHIYDPENRLTPKISFPWNEIRNISYSDKEFTIKPLDKKIDVFKFNSSKLRVNKLILQLCIGNHDLFMRRRKADSLEVQQMKAQAREEKARKQMERQRLAREKQMREEAERTRDELERRLLQMKEEATMANEALMRSEETADLLAEKAQITEEEAKLLAQKAAEAEQEMQRIKATAIRTEEEKRLMEQKVLEAEVLALKMAEESERRAKEADQLKQDLQEAREAERRAKQKLLEIATKPTYPPMNPIPAPLPPDIPSFNLIGDSLSFDFKDTDMKRLSMEIEKEKVEYMEKSKHLQEQLNELKTEIEALKLKERETALDILHNENSDRGGSSKHNTIKKLTLQSAKSRVAFFEEL
partner: B1 partner

In the first assay the parent is B1. Conditions: with med28_human MED28, Q9H204.
As for MAGAIASRMSFSSLKRKQPKTFTVRIVTMDAEMEFNCEMKWKGKDLFDLVCRTLGLRETWFFGLQYTIKDTVAWLKMDKKVLDHDVSKEEPVTFHFLAKFYPENAEEELVQEITQHLFFLQVKKQILDEKIYCPPEASVLLASYAVQAKYGDYDPSVHKRGFLAQEELLPKRVINLYQMTPEMWEERITAWYAEHRGRARDEAEMEYLKIAQDLEMYGVNYFAIRNKKGTELLLGVDALGLHIYDPENRLTPKISFPWNEIRNISYSDKEFTIKPLDKKIDVFKFNSSKLRVNKLILQLCIGNHDLFMRRRKADSLEVQQMKAQAREEKARKQMERQRLAREKQMREEAERTRDELERRLLQMKEEATMANEALMRSEETADLLAEKAQITEEEAKLLAQKAAEAEQEMQRIKATAIRTEEEKRLMEQKVLEAEVLALKMAEESERRAKEADQLKQDLQEAREAERRAKQKLLEIATKPTYPPMNPIPAPLPPDIPSFNLIGDSLSFDFKDTDMKRLAMEIEKEKVEYMEKSKHLQEQLNELKTEIEALKLKERETALDILHNENSDRGGSSKHNTIKKPQAQGRRPICI [S518A], the “effect of a mutation on the interaction” value was “increasing interaction”.

A further assay covers variants of B2. Conditions: with med28_human MED28, Q9H204.
As for MAGAIASRMSFSSLKRKQPKTFTVRIVTMDAEMEFNCEMKWKGKDLFDLVCRTLGLRETWFFGLQYTIKDTVAWLKMDKKVLDHDVSKEEPVTFHFLAKFYPENAEEELVQEITQHLFFLQVKKQILDEKIYCPPEASVLLASYAVQAKYGDYDPSVHKRGFLAQEELLPKRVINLYQMTPEMWEERITAWYAEHRGRARDEAEMEYLKIAQDLEMYGVNYFAIRNKKGTELLLGVDALGLHIYDPENRLTPKISFPWNEIRNISYSDKEFTIKPLDKKIDVFKFNSSKLRVNKLILQLCIGNHDLFMRRRKADSLEVQQMKAQAREEKARKQMERQRLAREKQMREEAERTRDELERRLLQMKEEATMANEALMRSEETADLLAEKAQITEEEAKLLAQKAAEAEQEMQRIKATAIRTEEEKRLMEQKVLEAEVLALKMAEESERRAKEADQLKQDLQEAREAERRAKQKLLEIATKPTYPPMNPIPAPLPPDIPSFNLIGDSLSFDFKDTDMKRLAMEIEKEKVEYMEKSKHLQEQLNELKTEIEALKLKERETALDILHNENSDRGGSSKHNTIKKLTLQSAKSRVAFFEEL [S518A], the “effect of a mutation on the interaction” value is reported as “increasing interaction”.

The record behind these values is IntAct's records for PubMed 15467741.
